Where no end group is shown, it is not given here. [ ]: non-standard residue; d: D form. Phe(4-Br) = N[C@@H](Cc1ccc(Br)cc1)C(=O)O; pGlu = O=C1CC[C@@H](C(=O)O)N1; Nle = CCCC[C@H](N)C(=O)O; Aib = CC(C)(N)C(=O)O
Molecular target: wild-type rat apelin receptor tagged at its C-terminus with EGFP (rat) (UniProt Q9JHG3)
Test: displacement of 0.2 nM [125I]-pyr-1-apelin-13; membranes of CHO cells expressing rat apelin receptor-EGFP

Chain of wild-type rat apelin receptor tagged at its C-terminus with EGFP (rat) (Q9JHG3 whole entry): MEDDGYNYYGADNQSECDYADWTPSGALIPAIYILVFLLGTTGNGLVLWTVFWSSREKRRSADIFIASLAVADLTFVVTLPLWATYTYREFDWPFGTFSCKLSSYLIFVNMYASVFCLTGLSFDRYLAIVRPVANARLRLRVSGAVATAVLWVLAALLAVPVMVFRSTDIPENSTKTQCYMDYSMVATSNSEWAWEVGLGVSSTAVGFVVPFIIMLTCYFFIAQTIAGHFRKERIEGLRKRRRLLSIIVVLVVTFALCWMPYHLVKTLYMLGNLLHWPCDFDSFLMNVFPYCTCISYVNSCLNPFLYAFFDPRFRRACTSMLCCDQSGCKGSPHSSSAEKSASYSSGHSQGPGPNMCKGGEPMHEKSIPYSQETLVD

Row | Ki [nM] | factor of weaker affinity compared to 1 [fold] | Binder
1 | 1 | 3 | [pGlu]RP[azaArg]LSHKGP[Nle][Aib][Phe(4-Br)] [azaArg4-pyr-1-apelin-13 A2 (16)]
2 | 0.1 | – | XRPRXSHKGPXXX (pGlu at 1; NMeLeu at 5; Nle at 11; Aib at 12; paraBrPhe at 13) [N-MeLeu5-pyr-1-apelin-13 A2 (10)]
3 | 0.56 | 2 | XRPXLSHKGPXXX (pGlu at 1; αMeArg at 4; Nle at 11; Aib at 12; paraBrPhe at 13) [α-MeArg4-pyr-1-apelin-13 A2 (12)]
4 | 0.13 | – | XRPRXSHKGPXXX (pGlu at 1; azaLeu at 5; Nle at 11; Aib at 12; paraBrPhe at 13) [azaLeu5-pyr-1-apelin-13 A2 (18)]
5 | 0.12 | – | XRPRXSHKGPXXX (pGlu at 1; D-Leu at 5; Nle at 11; Aib at 12; paraBrPhe at 13) [D-Leu5-pyr-1-apelin-13 A2 (8)]
6 | 0.17 | – | XRPRXSHKGPXXX (pGlu at 1; αMeLeu at 5; Nle at 11; Aib at 12; paraBrPhe at 13) [α-MeLeu5-pyr-1-apelin-13 A2 (14)]

Source: patent US20200239537A1
